Literature values as cited in article PMC10054347.

How the values were obtained:
[1] = molecular target: CD63 large extracellular loop (Homo sapiens (Human)) (UniProt P08962); assay: ELONA; settings: binding buffer, 37 C, 1 h; protein adsorbed on plate
[2] = molecular target: T1, SIRT1, human (Homo sapiens (Human)) (UniProt Q96EB6); assay: SPR; settings: circular (ligated 40-mer, ESI Fig 4); 100 mM NaCl, 5 mM MgCl2, pH 7.4, 25 C
T1 sequence: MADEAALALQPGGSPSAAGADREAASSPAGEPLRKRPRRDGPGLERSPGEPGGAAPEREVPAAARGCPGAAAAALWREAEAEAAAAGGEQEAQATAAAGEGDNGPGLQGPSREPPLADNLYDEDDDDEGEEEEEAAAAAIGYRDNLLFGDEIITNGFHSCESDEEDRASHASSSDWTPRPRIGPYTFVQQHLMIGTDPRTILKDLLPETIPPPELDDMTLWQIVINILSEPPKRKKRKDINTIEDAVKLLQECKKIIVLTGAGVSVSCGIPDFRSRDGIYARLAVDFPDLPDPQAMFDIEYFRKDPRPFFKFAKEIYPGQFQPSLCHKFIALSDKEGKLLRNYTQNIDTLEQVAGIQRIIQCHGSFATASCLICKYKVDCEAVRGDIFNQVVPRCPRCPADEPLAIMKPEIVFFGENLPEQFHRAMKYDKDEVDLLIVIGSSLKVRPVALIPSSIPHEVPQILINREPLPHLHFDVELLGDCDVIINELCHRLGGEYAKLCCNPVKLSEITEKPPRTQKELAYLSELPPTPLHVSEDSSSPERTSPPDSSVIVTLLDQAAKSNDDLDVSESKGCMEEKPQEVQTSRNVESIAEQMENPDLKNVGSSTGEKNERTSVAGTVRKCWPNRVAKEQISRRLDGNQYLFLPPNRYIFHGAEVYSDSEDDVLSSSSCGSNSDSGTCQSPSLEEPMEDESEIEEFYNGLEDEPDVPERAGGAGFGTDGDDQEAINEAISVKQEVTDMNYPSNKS

[3] = molecular target: T2, Epithelial cell adhesion molecule (EpCAM) (Homo sapiens (Human)) (UniProt P16422); assay: flow; settings: DPBS, 4.5 g/L glucose, 5 mM MgCl2, 10% FBS, 37 C; HepG2 cells overexpressing EpCAM
T2 sequence: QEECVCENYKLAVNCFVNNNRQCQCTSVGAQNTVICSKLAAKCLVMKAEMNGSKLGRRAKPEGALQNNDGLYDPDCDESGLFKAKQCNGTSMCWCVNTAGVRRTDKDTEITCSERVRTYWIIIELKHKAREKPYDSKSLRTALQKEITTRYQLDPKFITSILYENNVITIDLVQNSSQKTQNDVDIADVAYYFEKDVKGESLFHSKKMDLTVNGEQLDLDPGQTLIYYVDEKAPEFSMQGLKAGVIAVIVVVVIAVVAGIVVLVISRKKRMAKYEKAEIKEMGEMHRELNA

[4] = molecular target: MMP14 (MT1-MMP) (Homo sapiens (Human)) (UniProt P50281); assay: flow; settings: 293T-MMP14 cells; PBS, 10% FCS, 0.02% NaN3, 37 C, 30 min
[5] = molecular target: T3, C5a anaphylatoxin (human) (Homo sapiens (Human)) (UniProt P01031); assay: SPR; settings: all L-RNA (Spiegelmer); 5' 40 kDa branched PEG via aminohexyl linker
T3 sequence: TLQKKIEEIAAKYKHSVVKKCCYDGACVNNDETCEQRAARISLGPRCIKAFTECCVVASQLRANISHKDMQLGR

[6] = molecular target: T4, C5a anaphylatoxin (mouse) (Mus musculus (Mouse)) (UniProt P06684); assay: SPR; settings: all L-RNA (Spiegelmer); 5' 40 kDa branched PEG via aminohexyl linker
T4 sequence: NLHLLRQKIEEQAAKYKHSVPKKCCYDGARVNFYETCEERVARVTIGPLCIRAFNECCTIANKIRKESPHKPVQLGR

[7] = molecular target: T5, NELF-E (Drosophila) (Drosophila melanogaster (Fruit fly)) (UniProt P92204); settings: HiTS-RAP; 10 mM HEPES pH 7.5, 100 mM NaCl, 25 mM KCl, 5 mM MgCl2, 0.02% Tween-20, RT
T5 sequence: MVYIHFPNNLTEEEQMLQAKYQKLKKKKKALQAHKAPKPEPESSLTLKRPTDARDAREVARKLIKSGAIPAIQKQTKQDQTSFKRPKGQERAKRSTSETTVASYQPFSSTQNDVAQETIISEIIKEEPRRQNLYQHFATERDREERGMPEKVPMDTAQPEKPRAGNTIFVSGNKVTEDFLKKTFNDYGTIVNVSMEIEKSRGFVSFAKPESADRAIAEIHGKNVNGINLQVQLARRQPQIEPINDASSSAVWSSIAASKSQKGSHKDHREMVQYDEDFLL

[8] = molecular target: Lactoferrin (bovine milk) (Bos taurus (Bovine)) (UniProt P24627); assay: SPR
[9] = molecular target: PD-L1 (human) (Homo sapiens (Human)) (UniProt Q9NZQ7); assay: flow; settings: MDA-MB-231 PD-L1 over-expressing cells, 4 C, 1 h
[10] = molecular target: Double homeobox protein 4 (human), full length (Homo sapiens (Human)) (UniProt Q9UBX2); assay: FP; settings: hairpin with CCC bulge
[11] = molecular target: T6, Aspartyl/asparaginyl beta-hydroxylase, human (Homo sapiens (Human)) (UniProt Q12797); assay: flow; settings: HeLa-ASPH cells; DPBS, 5 mM MgCl2, glucose, BSA, tRNA
T6 sequence: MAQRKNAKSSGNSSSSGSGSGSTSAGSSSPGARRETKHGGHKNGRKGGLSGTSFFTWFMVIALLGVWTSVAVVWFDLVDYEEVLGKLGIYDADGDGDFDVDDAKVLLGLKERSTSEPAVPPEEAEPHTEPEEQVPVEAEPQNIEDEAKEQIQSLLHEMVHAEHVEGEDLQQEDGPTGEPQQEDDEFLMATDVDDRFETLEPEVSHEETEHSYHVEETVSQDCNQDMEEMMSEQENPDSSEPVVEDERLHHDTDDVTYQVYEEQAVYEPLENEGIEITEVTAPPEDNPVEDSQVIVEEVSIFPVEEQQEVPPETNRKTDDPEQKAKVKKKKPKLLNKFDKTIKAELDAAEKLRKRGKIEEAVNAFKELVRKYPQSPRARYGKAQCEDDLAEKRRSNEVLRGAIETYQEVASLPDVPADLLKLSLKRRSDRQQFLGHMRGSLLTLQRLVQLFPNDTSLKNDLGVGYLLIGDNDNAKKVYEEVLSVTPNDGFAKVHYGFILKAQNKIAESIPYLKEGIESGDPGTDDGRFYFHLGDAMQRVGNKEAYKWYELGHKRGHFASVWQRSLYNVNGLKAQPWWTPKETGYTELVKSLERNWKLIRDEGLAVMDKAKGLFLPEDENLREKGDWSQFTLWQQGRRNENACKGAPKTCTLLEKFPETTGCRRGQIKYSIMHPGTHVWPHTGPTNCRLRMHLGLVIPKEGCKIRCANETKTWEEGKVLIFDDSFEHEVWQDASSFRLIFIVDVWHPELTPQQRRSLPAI

[12] = molecular target: T7, FGFR3b ectodomain, human (Homo sapiens (Human)) (UniProt P22607); assay: flow; settings: 2'-F pyrimidines; 3'-inverted dT (not in strands); 5'-thiol; protein on protein G beads; DPBS / FACS buffer, 1 h, 37 C; apparent Kd
T7 sequence: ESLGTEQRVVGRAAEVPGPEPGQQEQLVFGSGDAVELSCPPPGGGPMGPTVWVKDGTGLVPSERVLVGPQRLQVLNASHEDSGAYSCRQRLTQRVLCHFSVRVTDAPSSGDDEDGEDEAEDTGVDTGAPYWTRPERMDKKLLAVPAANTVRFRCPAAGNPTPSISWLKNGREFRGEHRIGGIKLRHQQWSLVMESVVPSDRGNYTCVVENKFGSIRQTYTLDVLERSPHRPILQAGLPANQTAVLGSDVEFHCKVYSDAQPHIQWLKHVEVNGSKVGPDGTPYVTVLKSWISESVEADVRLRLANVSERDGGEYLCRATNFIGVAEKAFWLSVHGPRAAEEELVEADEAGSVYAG

[13] = molecular target: T8, FGFR3c ectodomain, mouse (Mus musculus (Mouse)) (UniProt Q61851); assay: flow; settings: 2'-F pyrimidines; 3'-inverted dT (not in strands); 5'-thiol; protein on protein G beads; DPBS / FACS buffer, 1 h, 37 C; apparent Kd
T8 sequence: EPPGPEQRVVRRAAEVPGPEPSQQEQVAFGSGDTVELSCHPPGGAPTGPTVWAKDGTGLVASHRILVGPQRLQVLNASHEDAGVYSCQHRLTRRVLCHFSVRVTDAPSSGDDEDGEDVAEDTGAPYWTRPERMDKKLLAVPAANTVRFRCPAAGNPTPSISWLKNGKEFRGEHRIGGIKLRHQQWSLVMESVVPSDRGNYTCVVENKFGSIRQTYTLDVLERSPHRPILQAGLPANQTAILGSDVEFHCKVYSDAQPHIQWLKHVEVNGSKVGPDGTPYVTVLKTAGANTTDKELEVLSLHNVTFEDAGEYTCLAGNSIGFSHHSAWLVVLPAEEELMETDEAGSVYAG

[14] = molecular target: T9, RNA-binding protein Hfq (YmaH) K2E (Bacillus subtilis (strain 168)) (UniProt O31796); assay: EMSA
T9 sequence: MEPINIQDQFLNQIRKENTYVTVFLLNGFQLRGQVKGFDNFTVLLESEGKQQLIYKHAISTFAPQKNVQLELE

[15] = molecular target: PDGFR-alpha ectodomain (human) (Homo sapiens (Human)) (UniProt P16234); assay: SPR; settings: 2'-F pyrimidines; 30 mM Tris-HCl pH 7.5, 150 mM NaCl, 5 mM MgCl2; aptamer on SA chip
[16] = molecular target: Integrin alpha5 beta1 ectodomain (Homo sapiens (Human)) (UniProt P08648+P05556); assay: SPR; settings: 2'-F pyrimidines; PBS 10 mM, 150 mM NaCl, 1 mM MgCl2, 0.005% P20, 25 C
[17] = molecular target: alpha-thrombin (light + heavy chain) (Homo sapiens (Human)) (UniProt P00734+P00734); assay: SPR; settings: 2'-F pyrimidines; 10 mM HEPES-KOH pH 7.5, 100 mM KCl; protein amine-coupled on CM5, BSA reference
[18] = molecular target: TGF-beta1 (mature) (Homo sapiens (Human)) (UniProt P01137); assay: SPR; settings: 2'-F pyrimidines; 10 mM HEPES-KOH pH 7.5, 100 mM KCl; protein amine-coupled on CM5, BSA reference
Chain of TGF-beta1 (mature) (Homo sapiens (Human)) (P01137 279-390): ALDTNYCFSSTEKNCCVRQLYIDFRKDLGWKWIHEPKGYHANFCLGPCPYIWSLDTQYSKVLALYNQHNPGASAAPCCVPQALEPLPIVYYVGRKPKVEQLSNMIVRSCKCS

Chain of Double homeobox protein 4 (human), full length (Homo sapiens (Human)) (Q9UBX2 whole entry): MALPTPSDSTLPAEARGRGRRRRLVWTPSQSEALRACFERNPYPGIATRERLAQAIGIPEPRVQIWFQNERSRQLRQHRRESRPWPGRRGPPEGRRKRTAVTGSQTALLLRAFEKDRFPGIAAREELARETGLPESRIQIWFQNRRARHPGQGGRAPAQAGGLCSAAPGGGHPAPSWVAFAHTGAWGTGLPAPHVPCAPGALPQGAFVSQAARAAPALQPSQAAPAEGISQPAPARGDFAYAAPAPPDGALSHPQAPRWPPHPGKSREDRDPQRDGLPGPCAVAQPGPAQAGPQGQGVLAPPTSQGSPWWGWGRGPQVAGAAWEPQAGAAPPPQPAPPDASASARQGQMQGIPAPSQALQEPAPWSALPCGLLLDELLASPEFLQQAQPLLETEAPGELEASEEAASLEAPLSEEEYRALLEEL
Chain of PD-L1 (human) (Homo sapiens (Human)) (Q9NZQ7 19-290): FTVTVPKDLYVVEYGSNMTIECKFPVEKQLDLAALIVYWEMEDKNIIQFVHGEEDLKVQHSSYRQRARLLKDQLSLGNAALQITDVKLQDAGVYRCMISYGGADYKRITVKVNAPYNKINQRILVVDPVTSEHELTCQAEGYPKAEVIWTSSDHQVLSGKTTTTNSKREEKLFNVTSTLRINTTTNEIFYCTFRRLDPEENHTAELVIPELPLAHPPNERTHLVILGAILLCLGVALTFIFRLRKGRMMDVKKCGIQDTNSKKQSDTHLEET
Chain of PDGFR-alpha ectodomain (human) (Homo sapiens (Human)) (P16234 24-524): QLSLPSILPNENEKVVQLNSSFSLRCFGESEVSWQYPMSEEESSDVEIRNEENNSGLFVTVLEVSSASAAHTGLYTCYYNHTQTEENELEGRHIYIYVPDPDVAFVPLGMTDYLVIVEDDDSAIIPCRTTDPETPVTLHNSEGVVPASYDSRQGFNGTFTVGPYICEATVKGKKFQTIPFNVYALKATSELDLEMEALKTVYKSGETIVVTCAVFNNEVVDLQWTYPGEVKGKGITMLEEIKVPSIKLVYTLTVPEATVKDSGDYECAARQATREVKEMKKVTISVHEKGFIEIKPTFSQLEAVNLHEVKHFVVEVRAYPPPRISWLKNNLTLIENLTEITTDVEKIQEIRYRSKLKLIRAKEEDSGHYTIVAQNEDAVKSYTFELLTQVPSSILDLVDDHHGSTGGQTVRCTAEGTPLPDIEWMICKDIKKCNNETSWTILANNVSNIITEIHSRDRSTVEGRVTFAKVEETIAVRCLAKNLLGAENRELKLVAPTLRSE
Chain of Lactoferrin (bovine milk) (Bos taurus (Bovine)) (P24627 20-708): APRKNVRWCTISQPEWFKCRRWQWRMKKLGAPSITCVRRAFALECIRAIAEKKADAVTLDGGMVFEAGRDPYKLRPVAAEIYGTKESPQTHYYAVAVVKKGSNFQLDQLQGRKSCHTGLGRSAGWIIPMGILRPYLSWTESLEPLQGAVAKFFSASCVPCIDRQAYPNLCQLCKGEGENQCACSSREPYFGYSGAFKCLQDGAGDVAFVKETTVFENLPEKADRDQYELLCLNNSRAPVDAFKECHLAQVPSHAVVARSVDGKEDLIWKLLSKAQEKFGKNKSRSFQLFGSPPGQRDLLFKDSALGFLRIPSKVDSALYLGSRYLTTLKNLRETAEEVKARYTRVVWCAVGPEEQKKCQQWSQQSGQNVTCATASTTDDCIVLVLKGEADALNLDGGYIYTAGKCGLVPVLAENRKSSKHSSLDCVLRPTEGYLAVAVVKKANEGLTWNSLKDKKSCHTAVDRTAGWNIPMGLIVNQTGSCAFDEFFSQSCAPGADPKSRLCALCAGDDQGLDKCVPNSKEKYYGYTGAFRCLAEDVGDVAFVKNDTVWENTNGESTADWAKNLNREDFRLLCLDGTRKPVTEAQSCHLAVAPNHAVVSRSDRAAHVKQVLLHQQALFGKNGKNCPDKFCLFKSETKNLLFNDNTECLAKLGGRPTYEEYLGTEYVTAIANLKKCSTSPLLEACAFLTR
Chain of Integrin alpha5 beta1 ectodomain (Homo sapiens (Human)) (P08648 42-995, chain 1 of 2): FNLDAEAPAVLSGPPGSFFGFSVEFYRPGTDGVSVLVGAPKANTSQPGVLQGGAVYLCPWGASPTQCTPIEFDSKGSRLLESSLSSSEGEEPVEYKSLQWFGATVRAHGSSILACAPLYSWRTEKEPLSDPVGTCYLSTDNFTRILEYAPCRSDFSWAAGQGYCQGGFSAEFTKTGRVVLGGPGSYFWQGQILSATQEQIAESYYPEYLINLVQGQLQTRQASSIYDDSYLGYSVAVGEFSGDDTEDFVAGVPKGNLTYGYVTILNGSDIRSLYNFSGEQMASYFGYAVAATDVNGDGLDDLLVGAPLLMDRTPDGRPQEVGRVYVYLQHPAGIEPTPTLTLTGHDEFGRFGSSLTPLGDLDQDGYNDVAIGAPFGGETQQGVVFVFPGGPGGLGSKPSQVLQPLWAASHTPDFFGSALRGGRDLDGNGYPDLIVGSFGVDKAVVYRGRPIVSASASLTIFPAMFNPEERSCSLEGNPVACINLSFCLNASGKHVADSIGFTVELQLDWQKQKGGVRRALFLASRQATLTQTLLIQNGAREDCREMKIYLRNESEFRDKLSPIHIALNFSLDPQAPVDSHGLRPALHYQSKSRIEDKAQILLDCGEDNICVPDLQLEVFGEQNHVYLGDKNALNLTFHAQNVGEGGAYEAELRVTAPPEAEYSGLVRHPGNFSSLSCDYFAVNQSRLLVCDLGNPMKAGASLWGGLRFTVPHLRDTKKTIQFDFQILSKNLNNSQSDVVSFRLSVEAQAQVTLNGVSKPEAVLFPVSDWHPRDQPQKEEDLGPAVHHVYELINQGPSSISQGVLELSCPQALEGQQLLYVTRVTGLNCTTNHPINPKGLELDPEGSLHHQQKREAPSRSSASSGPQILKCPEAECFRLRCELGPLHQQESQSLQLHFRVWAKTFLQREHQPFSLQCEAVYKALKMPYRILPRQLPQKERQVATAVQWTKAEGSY
Chain of Integrin alpha5 beta1 ectodomain (Homo sapiens (Human)) (P05556 21-728, chain 2 of 2): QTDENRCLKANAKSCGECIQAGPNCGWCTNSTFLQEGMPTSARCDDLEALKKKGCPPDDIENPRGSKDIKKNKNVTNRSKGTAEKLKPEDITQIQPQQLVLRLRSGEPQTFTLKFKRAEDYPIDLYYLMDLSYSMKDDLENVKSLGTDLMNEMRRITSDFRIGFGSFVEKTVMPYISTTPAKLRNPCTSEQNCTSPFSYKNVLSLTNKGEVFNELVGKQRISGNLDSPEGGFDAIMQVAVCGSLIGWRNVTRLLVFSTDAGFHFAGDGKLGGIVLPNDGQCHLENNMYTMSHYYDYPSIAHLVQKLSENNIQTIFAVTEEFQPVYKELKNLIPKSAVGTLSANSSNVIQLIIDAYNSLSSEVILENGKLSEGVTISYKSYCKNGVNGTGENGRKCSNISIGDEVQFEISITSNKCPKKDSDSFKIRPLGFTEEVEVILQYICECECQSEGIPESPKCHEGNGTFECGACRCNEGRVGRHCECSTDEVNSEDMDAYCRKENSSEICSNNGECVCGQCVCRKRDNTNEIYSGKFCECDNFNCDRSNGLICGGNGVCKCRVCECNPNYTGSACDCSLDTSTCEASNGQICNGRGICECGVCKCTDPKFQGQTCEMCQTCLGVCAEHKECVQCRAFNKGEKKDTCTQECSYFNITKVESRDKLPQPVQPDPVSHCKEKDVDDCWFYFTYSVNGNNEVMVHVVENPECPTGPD
Chain of CD63 large extracellular loop (Homo sapiens (Human)) (P08962 103-203): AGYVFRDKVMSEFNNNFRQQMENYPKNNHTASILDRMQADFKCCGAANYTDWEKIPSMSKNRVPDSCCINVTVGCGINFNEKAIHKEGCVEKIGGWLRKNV

Sequence: GCTGGACTCACCTCGACCAGAGCCATTGGGTTTCCTAGGAAATAGGGCCTTTACTATGAGCGAGCCTGGCG [LL4A]
- Kd [1]: 84.6 nM

Sequence: CGAGTGGGTTACATCGAAACTGGATCTCAACAGCGGTAAC [AC3 (C3)]
- Kd [2]: 0.27 nM

Sequence: AACAGAGGGACAAACGGGGGAAGATTTGACGTCGACGACA [EP166]
- Kd [3]: 5480 nM

Sequence: AGGGCCCGACGTGACGGCACGTCGGATATCTCATGCGTGT [M17]
- Kd [4]: 4.98 nM

Sequence: GCCUGAUGUGGUGGUGAAGGGUUGUUGGGUGUCGACGCACAGGC [NOX-D19]
- Kd [5]: 1.39 nM
- Kd [6]: 0.051 nM

Sequence: GGGAAUGGAUCCACAUCUACGAAUUCCCAACGACUGCCGAGCGAGAUUACGCUUGAGCGCCCCACUGAGGAUGCCCACGGGCGAUUGGGGCACGGCUUCACUGCAGACUUGACGAAGCUU [NELFapt (full length)]
- Kd [7]: 5.2 nM

Sequence: GCAGGACACCGTAACACGGGCTGATGCTCTCTTTATTTTACCTAAATAAAGTGTCCTGC [YFL-4 (Lac-A1), truncated 59-mer]
- Kd [8]: 0.953 nM

Sequence: ACCGACCGTGCTGGACTCATCTCGCTTTTTTCACGGTCCACACTACTATGAGCGAGCCTGGCG [XQ-P3]
- Kd [9]: 15.4 nM

Sequence: AGCTAACTTAATCAACCGCAGGTTGATTAACCCGTTAGC [DUX4_CTT_R7CCC]
- Kd [10]: 20 nM

Sequence: ATACCAGCTTATTCAATTCGGGACAAGACAACGAACGAACAGGAAGAGAACCGGAATGCAGACGTCAGGGAGATAGTAAGTGCAATCT [AP-Cell 1]
- Kd [11]: 47.5 nM

Sequence: GCCGAUGGUUUUGUGGCCGUUUGAGGUUCCUACGGC [iR3]
- Kd [12]: 48 nM
- Kd [13]: 36.6 nM

Sequence: GGGACACAAUGGACGUAGAGAGAGAUUAGAUCCUGUCCGCGGCUAUAACGGCCGACAUGAGAG [m49f]
- Kd [14]: 10 nM

Sequence: GGGAGAGCGGAAGCGUGCUGGGCCUGCUCUUUAAUAAACCCACUUUCGAACAUCAGCGUAUGUCCAUAACCCAGAGGUGAUGGAUCCCCC [PDR3]
- Kd [15]: 0.25 nM

Sequence: GGUUACCAGCCUUCACUGCGGACGGACAGAGAGUGCAACCUGCCGUGCCGCACCACGGUCGGUCACAC [H02-2'F]
- Kd [16]: 72 nM

Sequence: CCUUUGGUUCGGAUAAUUAUUAAGUAUUGUCUUCAUUCA [Tbn#3]
- Kd [17]: 1.4 nM

Sequence: UGGUAAUUUGUCGUUUAUACGGGUCCUCGCAUCUUCCUA [TGF#2 (probable)]
- Kd [18]: 10 nM
